From article PMC6987189, “Native aggregation is a common feature among triosephosphate isomerases of different species” (Scientific Reports, 2020)

Legend:
Assay in all cases: purified protein
Conditions in all cases: GAP to DHAP direction, 25 °C, 100 mM TEA, 10 mM EDTA, 0.2 mM NADH, GAP 0.3 to 3 mM
[1] = substrate: O=C[C@H](O)COP(=O)(O)O; format: biochemical, Leishmania mexicana
[2] = substrate: O=C[C@H](O)COP(=O)(O)O; format: biochemical, Saccharomyces cerevisiae
[3] = substrate: O=C[C@H](O)COP(=O)(O)O; format: biochemical, Plasmodium falciparum
[4] = substrate: O=C[C@H](O)COP(=O)(O)O; format: biochemical, Trypanosoma brucei
[5] = substrate: O=C[C@H](O)COP(=O)(O)O; format: biochemical, Thermus thermophilus
[6] = substrate: O=C[C@H](O)COP(=O)(O)O; format: biochemical, Taenia solium
[7] = substrate: O=C[C@H](O)COP(=O)(O)O; format: biochemical, Trypanosoma cruzi
[8] = substrate: O=C[C@H](O)COP(=O)(O)O; format: biochemical, Entamoeba histolytica

B1: LmTIM (Leishmania mexicana) (protein)
chain: MSAKPQPIAAANWKCNGTTASIEKLVQVFNEHTISHDVQCVVAPTFVHIPLVQAKLRNPKYVISAENAIAKSGAFTGEVSMPILKDIGVHWVILGHSERRTYYGETDEIVAQKVSEACKQGFMVIACIGETLQQREANQTAKVVLSQTSAIAAKLTKDAWNQVVLAYEPVWAIGTGKVATPEQAQEVHLLLRKWVSENIGTDVAAKLRILYGGSVNAANAATLYAKPDINGFLVGGASLKPEFRDIIDATR
notes: recombinant, E. coli BL21(DE3)pLysS, pET-3aHIS (His tag), purified; dimer plus higher aggregates
With B1 the Km [1] was 470 ± 10 µM, the kcat [1] was 2800 ± 164 s⁻¹ and the kcat/Km [1] was 5.9e+06 M⁻¹ s⁻¹.

B2: ScTIM (Saccharomyces cerevisiae S288C) (protein)
chain: ARTFFVGGNFKLNGSKQSIKEIVERLNTASIPENVEVVICPPATYLDYSVSLVKKPQVTVGAQNAYLKASGAFTGENSVDQIKDVGAKWVILGHSERRSYFHEDDKFIADKTKFALGQGVGVILCIGETLEEKKAGKTLDVVERQLNAVLEEVKDWTNVVVAYEPVWAIGTGLAATPEDAQDIHASIRKFLASKLGDKAASELRILYGGSANGSNAVTFKDKADVDGFLVGGASLKPEFVDIINSRN
notes: recombinant, E. coli BL21(DE3)pLysS, plasmid pKK233-3, purified; dimer plus higher aggregates
In the case of B2, the Km [2] is reported as 790 ± 100 µM, the kcat [2] is reported as 8690 ± 142 s⁻¹ and the kcat/Km [2] is reported as 1.1e+07 M⁻¹ s⁻¹.

B3: PfTIM (Plasmodium falciparum) (protein)
chain: MARKYFVAANWKCNGTLESIKSLTNSFNNLDFDPSKLDVVVFPVSVHYDHTRKLLQSKFSTGIQNVSKFGNGSYTGEVSAEIAKDLNIEYVIIGHFERRKYFHETDEDVREKLQASLKNNLKAVVCFGESLEQREQNKTIEVITKQVKAFVDLIDNFDNVILAYEPLWAIGTGKTATPEQAQLVHKEIRKIVKDTCGEKQANQIRILYGGSVNTENCSSLIQQEDIDGFLVGNASLKESFVDIIKSAM
notes: recombinant, E. coli BL21(DE3)pLysS, pTRC99A, purified (extra low-mass band on SDS-PAGE); dimer plus higher aggregates
Protein B3 has a Km [3] of 810 ± 40 µM, a kcat [3] of 5846 ± 39 s⁻¹ and a kcat/Km [3] of 7.3e+06 M⁻¹ s⁻¹.

B4: TbTIM (Trypanosoma brucei brucei) (protein)
chain: MSKPQPIAAANWKCNGSQQSLSELIDLFNSTSINHDVQCVVASTFVHLAMTKERLSHPKFVIAAQNAIAKSGAFTGEVSLPILKDFGVNWIVLGHSERRAYYGETNEIVADKVAAAVASGFMVIACIGETLQERESGRTAVVVLTQIAAIAKKLKKADWAKVVIAYEPVWAIGTGKVATPQQAQEAHALIRSWVSSKIGADVAGELRILYGGSVNGKNARTLYQQRDVNGFLVGGASLKPEFVDIIKATQ
notes: recombinant, E. coli BL21(DE3)pLysS, pET-3a, purified; dimer plus higher aggregates
Protein B4 has a Km [4] of 450 ± 50 µM, a kcat [4] of 5170 ± 117 s⁻¹ and a kcat/Km [4] of 1.15e+07 M⁻¹ s⁻¹.

B5: TtTIM (Thermus thermophilus HB8) (protein)
chain: MRRVLVAGNWKMHKTPSEARVWFAELKRLLPPLQSEAAVLPAFPILPVAKEVLAETQVGYGAQDVSAHKEGAYTGEVSARMLSDLGCRYAIVGHSERRRYHGETDALVAEKAKRLLEEGITPILCVGEPLEVREKGEAVPYTLRQLRGSLEGVEPPGPEALVIAYEPVWAIGTGKNATPEDAEAMHQAIRKALSERYGEAFASRVRILYGGSVNPKNFADLLSMPNVDGGLVGGASLELESFLALLRIAG
notes: as for B1
B5 gave a Km [5] of 60 ± 10 µM, a kcat [5] of 1788 ± 0.9 s⁻¹ and a kcat/Km [5] of 3e+07 M⁻¹ s⁻¹.

B6: TsTIM (Taenia solium) (protein)
chain: MTRKLFVGGNWKMNGSYSHINTFFDTLQKADTDPNADIVIGVPACYLKYAQDKAPKGIKIAAENCYKVGSGAFTGEISTEMIKDCGCEWVILGHSERRHIFGESNELIGEKVKHALDSGLNVIPCIGELLSEREAGKTNDVCFAQMDAIAKNVPSKEAWDKVVIAYEPVWAIGTGKTATPAQAQEVHKVVRDWIRKHVDAGIADKVRILYGGSVTASNAKDLGTQPDVDGFLVGGASLKPDFITIINARR
notes: recombinant, E. coli BL21(DE3)pLysS, pRSET (His tag), purified; dimer plus higher aggregates
In the case of B6, the Km [6] is reported as 520 ± 30 µM, the kcat [6] is reported as 2460 ± 101 s⁻¹ and the kcat/Km [6] is reported as 4.7e+06 M⁻¹ s⁻¹.

B7: TcTIM (Trypanosoma cruzi) (protein)
chain: MASKPQPIAAANWKCNGSESLLVPLIETLNAATFDHDVQCVVAPTFLHIPMTKARLTNPKFQIAAQNAITRSGAFTGEVSLQILKDYGISWVVLGHSERRLYYGETNEIVAEKVAQACAAGFHVIVCVGETNEEREAGRTAAVVLTQLAAVAQKLSKEAWSRVVIAYEPVWAIGTGKVATPQQAQEVHELLRRWVRSKLGTDIAAQLRILYGGSVTAKNARTLYQMRDINGFLVGGASLKPEFVEIIEATK
notes: as for B4
B7 showed a Km [7] of 440 ± 50 µM, a kcat [7] of 6000 ± 230 s⁻¹ and a kcat/Km [7] of 1.36e+07 M⁻¹ s⁻¹.

B8: EhTIM (Entamoeba histolytica HM-1:IMSS) (protein)
chain: MSARKFVVGGNWKCNGTLASIETLTKGVAASVDAELAKKVEVIVGVPFIYIPKVQQILAGEANGANILVSAENAWTKSGAYTGEVHVGMLVDCQVPYVILGHSERRQIFHESNEQVAEKVKVAIDAGLKVIACIGETEAQRIANQTEEVVAAQLKAINNAISKEAWKNIILAYEPVWAIGTGKTATPDQAQEVHQYIRKWMTENISKEVAEATRIQYGGSVNPANCNELAKKADIDGFLVGGASLDAAKFKTIINSVSEKF
notes: recombinant, E. coli BL21(DE3)pLysS, plasmid given as pRET, purified; dimer plus higher aggregates
B8 gave a Km [8] of 140 ± 30 µM, a kcat [8] of 3650 ± 254 s⁻¹ and a kcat/Km [8] of 2.5e+07 M⁻¹ s⁻¹.
